Source: publication PMC4861311

How the values were obtained:
[1] = biological target: bacteriophage P22 coat protein (Salmonella typhimurium bacteriophage P22) (UniProt P26747); experiment: SEC-MALS
[2] = biological target: CelB tetramer (Pyrococcus β-glucosidase CelB, isolated sample imaged by cryo-EM) (Pyrococcus furiosus) (UniProt Q51723); experiment: cryo-EM structure

UniProt P26747, sequence (P26747 whole entry): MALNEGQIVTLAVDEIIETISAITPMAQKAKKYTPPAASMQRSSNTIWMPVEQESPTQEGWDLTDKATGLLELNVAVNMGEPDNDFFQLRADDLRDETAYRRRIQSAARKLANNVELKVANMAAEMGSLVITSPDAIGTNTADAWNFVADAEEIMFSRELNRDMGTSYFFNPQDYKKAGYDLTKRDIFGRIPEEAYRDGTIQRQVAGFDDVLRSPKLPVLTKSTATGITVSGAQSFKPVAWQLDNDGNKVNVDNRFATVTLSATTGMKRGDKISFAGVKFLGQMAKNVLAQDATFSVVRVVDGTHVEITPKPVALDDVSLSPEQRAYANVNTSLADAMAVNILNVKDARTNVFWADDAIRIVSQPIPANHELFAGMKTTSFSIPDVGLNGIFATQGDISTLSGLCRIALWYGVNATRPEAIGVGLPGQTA

Substance | #Cargo/capsid [1] | stoichiometry N [2]
EGFP fused to N-terminal-truncated P22 scaffold protein | 224 cargo/capsid | 
CelB tetramer (Pyrococcus β-glucosidase CelB, isolated sample imaged by cryo-EM) (from UniProt Q51723 2-472) (enzyme) |  | 4
